Test results taken from patent US20050239730A1, “Plasmodium falciparum erythrocyte binding protein baebl for use as a vaccine” (priority 2001, published 2005).

Legend:
[1] = system: binding of BAEBL to human erythrocytes; test: Competitive inhibition assay; settings: 1 μM, 10 μM, 100 μM, and 1000 μM; preincubated 1 hr at room temperature
Procedure: To determine the specificity of binding, we studied binding to neuraminidase-and trypsin-treated human erythrocytes and human erythrocytes with various genetically modified blood groups. […] To determine whether BAEBL was binding to the carbohydrates on the erythrocyte receptor, we performed competitive inhibition with Neu5Ac(α2-3) lactosialic and Neu5Ac(α2-6)lactosialic acid at 1 μM, 10 μM, 100 μM, and 1000 μM.
An inhibition assay was conducted in the presence of Neu5Ac(α2-3) lactosialic acid or Neu5Ac(α2-6) lactosialic acid (Sigma). Metabolically labeled parasite supernatant (50 μl) was preincubated with 1, 10, 100, or 1000 μM in 15 μl of the aforementioned carbohydrates for 1 hr at room temperature. Packed erythrocytes (50 μl) were added to the mixture. The erythrocyte binding assay was conducted as described above. Immunolocalization of BAEBL.

[2] = target: neuraminidase-treated normal human erythrocytes; test: region II on COS cells, erythrocyte-binding assay
[3] = target: Gerbich human erythrocytes (exon 3 deletion of glycophorin C/D: shortened glycophorin C, absent glycophorin D); test: region II on COS cells, erythrocyte-binding assay
[4] = target: trypsin-treated human erythrocytes; test: region II on COS cells, erythrocyte-binding assay
[5] = target: normal human erythrocytes (untreated); test: region II on COS cells, erythrocyte-binding assay

Row | Molecule | Inhibition of the binding of BAEBL to human erythrocytes [1] | percentage of binding to normal, untreated RBC [2] [%] | percentage of binding to normal, untreated RBC [3] [%] | percentage of binding to normal, untreated RBC [4] [%] | COS cells with five or more attached RBC, total per coverslip (COS cells per coverslip) [5]
1 | CC(=O)NC1C(O)CC(OCC2OC(OC3C(CO)OC(O)C(O)C3O)C(O)C(O)C2O)(C(=O)O)OC1C(O)C(O)CO (stereo not drawn) [Neu5Ac(α2-6) lactosialic acid] | neither Neu5Ac(α2-3) nor Neu5Ac(α2-6) lactosialic acid inhibited the binding |  |  |  | 
2 | BAEBL region II variant INRE, expressed on the surface of COS cells (ligand) |  | 110 | 100 | 114 | 67
3 | CC(=O)NC1C(O)CC(OC2C(O)C(CO)OC(OC3C(CO)OC(O)C(O)C3O)C2O)(C(=O)O)OC1C(O)C(O)CO (stereo not drawn) [Neu5Ac(α2-3) lactosialic acid] | neither Neu5Ac(α2-3) nor Neu5Ac(α2-6) lactosialic acid inhibited the binding |  |  |  | 
4 | BAEBL region II variant VSKK, expressed on the surface of COS cells (ligand) |  | 90 | 112 |  | 58
5 | BAEBL region II variant ISKK, expressed on the surface of COS cells (ligand) |  |  | 96 | 92 | 59
